Measured values: paper PMC3007124 (Nature cell biology, 2010)

B1: mCherry-p54nrb (natural protein)
chain: MQSNKAFNLEKQNHTPRKHHQHHHQQHHQQQQQQQQQQPPPPIPANGQQASSQNEGLTIDLKNFRKPGEKTFTQRSRLFVGNLPPDITEEEMRKLFEKYGKAGEVFIHKDKGFGFIRLETRTLAEIAKVELDNMPLRGKQLRVRFACHSASLTVRNLPQYVSNELLEEAFSVFGQVERAVVIVDDRGRPSGKGIVEFSGKPAARKALDRCSEGSFLLTTFPRPVTVEPMDQLDDEEGLPEKLVIKNQQFHKEREQPPRFAQPGSFEYEYAMRWKALIEMEKQQQDQVDRNIKEAREKLEMEMEAARHEHQVMLMRQDLMRRQEELRRMEELHNQEVQKRKQLELRQEEERRRREEEMRRQQEEMMRRQQEGFKGTFPDAREQEIRMGQMAMGGAMGINNRGAMPPAPVPPGTPAPPGPATMMPDGTLGLTPPTTERFGQAATMEGIGAIGGTPPAFNRPAPGAEFAPNKRRRY
B2: PSP2 (natural protein)
chain: MKIFVGNVDGADTTPEELAALFAPYGTVMSCAVMKQFAFVHMRENAGAVRAIEALHGHELRPGRALVVEMSRPRPLNTWKIFVGNVSAACTSQELRSLFERRGRVIECDVVKDYAFVHMEKEADAKAAIAQLNGKEVKGKRINVELSTKGQKKGPALAIQSGDKTKKPGAGDTAFPGTGGFSATFDYQQAFGNSTGGFDGQARQPTPPFFGRDRSPLRRSPPRASYVAPLTAQPATYRAQPSVSLGAAYRAQPSASLGVGYRTQPMAAQAASYRAQPSVSLGAPYRGQLASPSSQSAAASSLGPYGGVQPSASALSTYGGQAAAASSLNSYGAQGSSLASYGNQPSSYGAQAASSYGVRAAASSYNTQGAASSLGSYGAQAASYGAQSAASSLAYGAQAASYSAQPSASYSAQSAPYAAQQAASYSSQPAAYVAQPATAAAYASQPAAYAAQATTPMAGSYGAQPVVQTQLNSYGAQASIGLSGSYGAQSAAAATGSYGAAAAYGAQPSATLAAPYRTQSSASLAASYAAQQHPQAAASYRGQPGSAYDGTGQPSAAYLSMSQGAVANANSTPPPYERTRLSPPRASYDDPYKKAVAMSKRYGSDRRLAELSDYRRLSESQLSFRRSPTKSSLDYRRLPDAHSDYARYSGSYNDYLRAAQMHSGYQRRM

Assays:
EYFP-LacI-PSP1 = biological target: T1, EYFP-LacI-PSP1 (UniProt Q8R326 1-523); test: LacO/LacI tethering in cells, recruitment seen by fluorescence microscopy
T1 sequence: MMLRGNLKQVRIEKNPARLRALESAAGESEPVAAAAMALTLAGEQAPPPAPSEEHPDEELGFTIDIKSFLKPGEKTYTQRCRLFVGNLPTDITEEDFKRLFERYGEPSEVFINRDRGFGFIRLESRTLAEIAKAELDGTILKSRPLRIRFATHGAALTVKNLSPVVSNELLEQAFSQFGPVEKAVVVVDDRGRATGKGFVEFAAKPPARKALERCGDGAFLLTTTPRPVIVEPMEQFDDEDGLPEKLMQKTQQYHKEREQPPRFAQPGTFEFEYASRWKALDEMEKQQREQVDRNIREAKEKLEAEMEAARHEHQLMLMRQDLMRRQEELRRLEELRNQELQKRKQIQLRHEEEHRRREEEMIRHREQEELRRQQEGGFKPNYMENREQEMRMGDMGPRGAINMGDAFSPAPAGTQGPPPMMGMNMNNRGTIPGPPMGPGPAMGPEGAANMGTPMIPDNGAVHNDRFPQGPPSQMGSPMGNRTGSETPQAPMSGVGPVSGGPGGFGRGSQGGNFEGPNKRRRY

EYFP-LacI-PSF = biological target: T2, EYFP-LacI-PSF (UniProt Q8VIJ6 1-699); test: as above
T2 sequence: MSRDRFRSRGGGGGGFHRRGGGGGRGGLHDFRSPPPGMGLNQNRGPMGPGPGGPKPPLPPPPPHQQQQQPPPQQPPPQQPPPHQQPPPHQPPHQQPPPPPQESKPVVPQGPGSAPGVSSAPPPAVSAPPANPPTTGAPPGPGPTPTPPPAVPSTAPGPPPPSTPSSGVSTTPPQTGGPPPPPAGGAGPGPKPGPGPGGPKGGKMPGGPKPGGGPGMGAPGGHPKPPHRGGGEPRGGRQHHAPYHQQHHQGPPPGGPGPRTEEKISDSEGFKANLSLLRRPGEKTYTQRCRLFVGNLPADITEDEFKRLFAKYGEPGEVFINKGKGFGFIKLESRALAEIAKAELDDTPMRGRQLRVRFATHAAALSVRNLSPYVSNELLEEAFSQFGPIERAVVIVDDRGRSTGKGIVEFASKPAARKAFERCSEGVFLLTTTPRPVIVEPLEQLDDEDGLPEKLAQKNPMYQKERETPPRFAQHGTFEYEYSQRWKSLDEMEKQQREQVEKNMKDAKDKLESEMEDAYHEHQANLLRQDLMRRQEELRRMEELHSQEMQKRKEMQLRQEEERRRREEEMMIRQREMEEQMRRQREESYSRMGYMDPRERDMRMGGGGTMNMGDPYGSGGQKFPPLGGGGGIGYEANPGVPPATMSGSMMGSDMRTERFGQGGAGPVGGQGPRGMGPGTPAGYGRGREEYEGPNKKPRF

| Binder | percent of cells with recruitment to the tethered protein (EYFP-LacI-PSP1) | percent of cells with recruitment to the tethered protein (EYFP-LacI-PSF) |
| --- | --- | --- |
| B1 | 87 % of the cells | – |
| B2 | – | 58 % of the cells |
